Experimental data taken from the supplement of paper PMC9170038.

Tested on: MS2 coat protein
Assay: apparent KD of MS2 coat protein; designed switch direction (-1 OFF switch, 1 ON switch): -1; higher = weaker reporter binding
Method in brief: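 Designed RNA switches with common flanks were made on Illumina chips by stalled E. coli RNA polymerase. Titration with SNAP-549-labelled MS2 coat protein doubled from 0.7 or 1.5 nM up to 3 µM. Apparent KD is each design's median over clusters after curve-fitting normalised fluorescence.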

[1] = Eterna round: R95, input ligand: FMN 200 uM
[2] = Eterna round: R95, input ligand: microRNA oligo, concentration not stated
[3] = Eterna round: R95, input ligand: none
[4] = input ligand: microRNA oligo, concentration not stated

Row | Sequence | apparent KD of MS2 coat protein (input ligand: FMN 200 uM) [µM] | apparent KD of MS2 coat protein (input ligand: none) [µM] | apparent KD of MS2 coat protein [1] [µM] | apparent KD of MS2 coat protein [2] [µM] | apparent KD of MS2 coat protein [3] [µM] | apparent KD of MS2 coat protein [4] [µM]
1 | AGUCGGUCAGGAUAUGCAGACGUAGACAUGAGGAUCACCCAUGUGACGUGGGCCUGGUUUGUAGAAGGGACGAGCA [EX5 #83] (Eterna round: R97, puzzle: Exclusion 5) | 0.0302 | 0.0193 | – | – | – | –
2 | AGCAAGCUUUUAAGAUCCUACAUGAGGAUCACCCAUGUGCUCGUCUUGUAACGUACUGUGACGAAAGUCACGGUACG [JL TOV1 3.31] (Eterna round: R97, puzzle: Sensor, turn-off variant 1) | 0.374 | 0.506 | – | – | – | –
3 | AGAUAACAUGAGGAUCACCCAUGUGAGGAUAUUUACCCAAGAGCUUCGGCUCUCAGGUGAAGAAGGCACGUUGA [EX1 #59] (Eterna round: R97, puzzle: Exclusion 1) | 0.109 | 0.0554 | – | – | – | –
4 | GAGGAACAUGAGGAUCACCCAUGUAAGGAUAUGCAAAGCGAGGUAGUAGAAGGAGAAGGCAGAAGGUACACGGA [JR_Exclu1_Sub075] (puzzle: Exclusion 1) | – | – | 0.0319 | 0.0296 | 0.0453 | –
5 | CGGAUGUGAGGAUAUACAUGAGGAUCACCCAUGUGUGCCAGCUAGAUGACUGGCACUUGUAGAAGGCACGUCUG [Mat - Exclusion 3 - Mod of JL D91] (puzzle: Exclusion 3) | – | – | – | 0.0113 | – | –
6 | GUCACAUGGACAUAGGAUCACAUGAGGAUCACCCAUGUGACUAACAAGCUUUUUGUUCGUCUUAUGUCUAUGUGAAA [Stov1/16-B1] (Eterna round: R97, puzzle: Sensor, turn-off variant 1) | 0.0135 | 0.0116 | – | – | – | –
7 | UUUGCAAGCUUUUGAUCCCACAUGAGGAUCACCCAUGUUGCUGCCGUGAGGUAGCAUUUAACAAAUGCUCGUCUUAU [JL TOV1 3.53] (Eterna round: R97, puzzle: Sensor, turn-off variant 1) | 0.555 | 0.762 | – | – | – | –
8 | GGUGCUGGCGCGUCGGUGUUGGUGCAAUAAGCUUGUGAGACAUGAGGAUCACCCAUGUCCUCGUGGGCUCGUCUUGU [salish99_TOv2_r2_091] (puzzle: Sensor v3, turn-off variant 2) | – | – | 0.0912 | 0.0793 | 0.0937 | –
9 | UGAGUGUGAGGAUAUGGUAAAGAUAAGAUGAUGAAAGAACUCCAGAAGGCACAUGAGGAUCACCCAUGUAGAUG [JL-ex4-2.12 Jieux mod] (puzzle: Exclusion 4) | – | – | 0.0811 | 0.0354 | 0.0357 | –
10 | ACAAGCUUUUUGUUCGUCUUAUAAUAAUAAAUAAAGAUAACAUGAGGAUCACCCAUGUAAAGAAGACGGCCUCAUGU [Sesor Array 20 - Jieux - Sensor v3, turn-off variant 2] (puzzle: Sensor v3, turn-off variant 2) | – | – | 0.785 | 0.233 | 1.12 | –
11 | AAGCAUUGCCAAAGGUAGUGCUUUACAUGAGGAUCACCCAUGUAGGAUAUGGUAGGCAAAGCUUACCAGAAGGACAUGAUAAUU [Mat - Exclusion NG 3 - Mod of JL - D13] (Eterna round: R96, puzzle: Exclusion NG 3) | 0.151 | 0.0479 | – | – | – | 0.0474
12 | GUUAAGGUAGGAUAUACGAUAAUAUAGGGUAGAAUAUUAACACAUGAGGAUCACCCAUGUAGAAGGACCAAUUG [Mat - Exclusion 2 - Mod of my Tesla design - D51] (puzzle: Exclusion 2) | – | – | 0.0387 | 0.0211 | 0.0228 | –
13 | GUCAUCAAACAUGGGAUCAACAUGAGGAUCACCCAUGUUGACAAGUUUUUUGCUCGUCUUAUAAUACGUUUGAUGAC [Mod-Jx] (Eterna round: R97, puzzle: Sensor, turn-off variant 1) | 0.0162 | 0.0155 | – | – | – | –
14 | ACAAGCUUUAGGCGUGUGAACAUGAGGAUCACCCAUGUAUUUUUGGUUAGGAGUUCUGUAAGGGAUGCUCGUCUUAU [JR_SWV3TOV1_Sub091] (puzzle: Sensor v3, turn-off variant 1) | – | – | 0.0422 | 0.0551 | 0.0489 | –
15 | CGAGACGGAGGAUAUACAUGAGGAUCACCCAUGUUAAACCACGGGUAGCCUUCGGUCGGUAGAAGGCCGCAUCG [Eternabot (Original) Solution 47] (Eterna round: R97, puzzle: Exclusion 3) | 0.0867 | 0.0212 | – | – | – | –
16 | AGCCAAGCAGGAUAUGCCCGUAAUAACAUGAGGAUCACCCAUGUGACCGAUUUAUGUUCUGCAGAAGGGCUUGGAA [LRO-Excl5-12-mod of Erxesoan mod by Eli Fisker] (Eterna round: R97, puzzle: Exclusion 5) | 0.0913 | 0.0248 | – | – | – | –
17 | CUAGUCCGAGGAUAUAUUAUGUGAUACAUGAGGAUCACCCAUGUUAUAUGAUGGAUGUUAGUAGAAGGCGGACUAG [Mat - Exclusion 5 - JL mod - D81] (puzzle: Exclusion 5) | – | – | 0.0863 | 0.0966 | 0.0793 | –

Row | Sequence | apparent KD of MS2 coat protein (input ligand: FMN 200 uM) [µM] | apparent KD of MS2 coat protein (input ligand: none) [µM] | apparent KD of MS2 coat protein [1] [µM] | apparent KD of MS2 coat protein [2] [µM] | apparent KD of MS2 coat protein [3] [µM] | apparent KD of MS2 coat protein [4] [µM]
18 | UAAAAGGGAGGAUAUACUUGAGGAUCACCCAAGUGAUCCAGACCCUGAACGGUCUAUAGUAGAAGGCCCAAUAA [Teinma] (Eterna round: R97, puzzle: Exclusion 3) | 0.152 | 0.058 | – | – | – | –
19 | AAUCCACAUGAGGAUCACCCAUGUGAGGAUAUGAUACUAUGUACUUCGGUACAUAGUAUCAGAAGGCACAUAAA [Ex1-3: 51] (puzzle: Exclusion 1) | – | – | – | 0.0284 | – | –
20 | CUAACACAUGAGGAUCACCCAUGUGAGGAUAUGCGUACGUUGUCCGUAGGCGACGUGCGCAGAAGGCGCUUGGU [JL-ex1-3.20 Eli mod] (puzzle: Exclusion 1) | – | – | – | 0.0519 | – | –
21 | UAAUUGAUUAAUAGAUUAUACAUGAGGAUCACCCAUGUAGGUCCUACGUGCCAUUUAAGCAGCUCGUCUUAUUCCCA [Sensor-V1 #68] (Eterna round: R97, puzzle: Sensor, turn-off variant 1) | 0.0418 | 0.049 | – | – | – | –
22 | GUAAACGAAGAGGAUAUUUGAUAUCAUAGCUUCAAAGAAGGCUUCACAUGAGGAUCACCCAUGUGAUCUUCAAA [Mat - Exclusion 6 - JL Mod - D22] (Eterna round: R97, puzzle: Exclusion 6) | 0.142 | 0.0207 | – | – | – | –
23 | UUUUAACAUGAGGAUCACCCAUGUAAGGAUAUGCUAUUUUUUUUUUUUUUUUUUUUUUGCAGAAGGUACAUUUU [My solution] (puzzle: Exclusion 1) | – | – | 0.0338 | 0.0213 | 0.0216 | –
24 | AAGCCCUGAGGAUAUCCCAACUCGCACAUGAGGAUCACCCAUGUCCUCCUCCGGGCUUCGGGAGAAGGCAGGUCUC [Megrez-7.8] (Eterna round: R97, puzzle: Exclusion 5) | 0.186 | 0.0257 | – | – | – | –
25 | CAGCUGAAAGUCAGGAUAUCUAGAGCGAUAGCUCUAGAGAAGGGACAUGAGGAUCACCCAUGUGGUCACAGCUG [BmEx4/5-A4] (Eterna round: R97, puzzle: Brourd's mod of Exclusion 4) | 0.169 | 0.648 | – | – | – | –
26 | AAAAAACAAGGAUAUACGGAUGAAGAUUGUCUUAAUUUUUGACAUGAGGAUCACCCAUGUAGAAGGUGUUAAAA [JR_Exclusion2_Sub016] (puzzle: Exclusion 2) | – | – | – | 0.158 | – | –
27 | CUGCUCCGUGUAGGAUAUGCAUAUUCCCAUUAUGCAGAAGGACAUGAGGAUCACCCAUGUAUGUUAUUAUCAUGUGUUACAUGC [Design 9] (Eterna round: R96, puzzle: Exclusion NG 1) | 0.203 | 0.0332 | – | – | – | 0.0249
28 | GGAGGAAGAGAGGAUAUGCGCUCAAGGAGAAAAGCAGAAGGUUCAACAUGAGGAUCACCCAUGUAUGAUCCUCA [AK-MS2ROC-r4-exclusion6-4] (Eterna round: R97, puzzle: Exclusion 6) | 0.342 | 0.203 | – | – | – | –
29 | GAUUAUGCGAGCUUUAGGGACAUGAGGAUCACCCAUGUUCGUCUUAUUGGUCUGAGUGCACUAACAUACCUAAAUCU [JMF 31] (puzzle: Sensor v3, turn-off variant 1) | – | – | 0.0231 | 0.0373 | 0.0228 | –
30 | CAAAAGGUAGGAUAUACGAAAAAAAAGGGUAGAAAAAAAACACAUGAGGAUCACCCAUGUAGAAGGACCAAAAC [salish99_ex2_r3_042] (puzzle: Exclusion 2) | – | – | 0.0957 | 0.0226 | 0.0216 | –
31 | UUUAAUUUUUUUUUUUUACAAGCUUUUUGCUCGUCUUAUACAUGAGGAUCACCCAUGUGGGUAGGAGAUAAAUUAUC [JMF 16] (puzzle: Sensor v3, turn-off variant 2) | – | – | 0.0321 | 0.0454 | 0.057 | –
32 | UGUGUGUCAGGAUAUGUGUGUGUGUGUGAAAGCGCGCGCGCGCAGAAGGGACAUGAGGAUCACCCAUGUGCGCG [-35.3, -34.3 kcal, A 20%, 6bis-6] (Eterna round: R97, puzzle: Exclusion 4) | 0.484 | 0.22 | – | – | – | –
33 | UAUAUAUAGUAAGGAUAUGUAUUUAUUCUAUAAACAGAAGGUACUGACAUGAGGAUCACCCAUGUUUUAGUGUGGGCAUGUAGA [JMF's solution 18] (Eterna round: R96, puzzle: Exclusion NG 1) | – | – | – | – | – | 0.033
34 | GAUGGAGAGCAGGAUAUCUUGGGUAAGCAUCAUAGAGAAGGGCUCACAUGAGGAUCACCCAUGUGGUCCAAGAA [Usbiridi] (Eterna round: R96, puzzle: Exclusion 6) | 0.057 | 0.0183 | – | – | – | 0.0151
